Data from paper doi:10.1101/2020.06.22.20137695.

Legend:
[1] = molecular target: HCoV-HKU1 spike protein, recombinant soluble ectodomain trimer (HCoV-HKU1) (UniProt Q0ZME7); assay: SEC
[2] = molecular target: HCoV-OC43 spike protein, recombinant soluble ectodomain trimer (HCoV-OC43 | bacteriophage T4) (UniProt P36334); assay: SEC

Substance	stoichiometry N [1]	stoichiometry N [2]
HCoV-HKU1 spike protein, recombinant soluble ectodomain trimer (from UniProt Q0ZME7 13-1295) (domain or fragment)	3	
HCoV-OC43 spike protein, recombinant soluble ectodomain trimer (from UniProt P36334 14-1297) (domain or fragment)		3
